From article PMC3663881 (Journal of biomolecular screening, 2013)

Target: T1, RhaS-GB1201b (RhaS L201R-GB1basic) (UniProt P09377 1-278, L201R)
T1 sequence: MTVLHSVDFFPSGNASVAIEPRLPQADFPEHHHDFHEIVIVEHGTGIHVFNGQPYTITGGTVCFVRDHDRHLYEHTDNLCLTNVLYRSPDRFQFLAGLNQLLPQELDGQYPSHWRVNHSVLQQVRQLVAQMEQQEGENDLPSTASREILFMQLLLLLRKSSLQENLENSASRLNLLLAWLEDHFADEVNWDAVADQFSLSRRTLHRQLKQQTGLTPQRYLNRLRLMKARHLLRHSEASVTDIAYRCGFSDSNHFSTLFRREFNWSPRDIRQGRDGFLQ
Assay: EMSA

B1: rhaBAD RhaS site probe (oligos 3058/3288) (dsDNA)
DNA 1: ACGTTCATCTTTCCCTGGTTGCCAATGGCCCATTTTCCTGTCAGTAACGAGAAGGTCGCGAA
DNA 2: TTCGCGACCTTCTCGTTACTGACAGGAAAATGGGCCATTGGCAACCAGGGAAAGATGAACGT
binding result: binds
